The source of these data is the nanobody polyreactivity screen of Harvey et al. (2022).

This series is described as follows: yeast display, Sf9 membrane polyspecificity reagent, FACS + sequencing; frameworks hold sequencing errors. In a few lines: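 A synthetic nanobody library was expressed on Saccharomyces cerevisiae BJ5465 by galactose induction for 36–48 hours. The library was stained for 1 hour at 4 °C with 10% biotinylated, detergent-solubilized Sf9 membrane reagent and enriched with streptavidin microbeads before FACS. Low and high (top ~1%) gates were set on anti-HA fluorescence for expression and streptavidin fluorescence for reagent binding, and each polyreactivity label reflects the gate of origin.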
For the sequence “QVQLVESGGGLVQAGGSLRLSCAASGRTFYTYAMGWYRQAPGKERELVAGIRTGGGSTYYADSVKGRFTISRDNAKYSVYLQMNSLKPDDTAVYYCAADTYDGYDYWGQGSQVTVSS”, the “polyreactivity (PSR sort gate)” value is given as “low polyreactivity”.

As for “QVQLVESGGGLVQAGGSLRLSCAASGRTFYTYARGWYRQAPGKERELVAAITKRGGSTYYADSVKGRFTISRDYAKNTVYLQMNSLKPEDTAVYYCNQELATARGQSLYRTYSGYGYWGQGTQVTVSS”, the “polyreactivity (PSR sort gate)” value is listed as “high polyreactivity”.

Turning to “QVQLVESGGGLVQAGGSLRLSCAASGRTFYVNAMGWYRQAPGKERELVASITSGGSTYYADSVKGRFTISRDNAKNTVSLQMNSLKPEDTAVYYCAAGSKDLYRPYDYWGQGTQLTVSS”, the “polyreactivity (PSR sort gate)” value is recorded as “high polyreactivity”.

For “QVQLVESGGGLVQAGGSLRLSCAASGRTFYVYDMGWYREAPGKVRELVAFISSSGSTNYADSVKGRFTISRDNAKYTVYLQMNSLKPEDTAGYYCNKRLIYYRGTYYSRRFDYWGQGTQVTVSS”, the “polyreactivity (PSR sort gate)” value was “high polyreactivity”.

Turning to “QVQLVESGGGLVQAGGSLRLSCAASGRTFYVYDMGWYRQAPGKERELVAAISNICTRTYYADSVKGRFTISRDNAKNTVYLQMNSLKPEVTAVYYCATGRSRVYKGRGDYWGQGTHVTVSS”, the “polyreactivity (PSR sort gate)” value is “high polyreactivity”.

“QVQLVESGGGLVQAGGSLRLSCAASGRTFYVYSMGWYRQAPGKERELVAAITASGGSTYYADSVKGRFTLSRDNAKNTVYLQMHSLKPEDTAVYYCAARVVTRVRGVGYNYWGHGTQVTVSS”: the “polyreactivity (PSR sort gate)” value is reported as “high polyreactivity”.

Regarding “QVQLVESGGGLVQAGGSLRLSCAASGRTFYVYTMGWYIQAPGKEREMVAGIAYSGGSTYYADSVKGRFTISRDNAKNTVYLQMNSLKPEDTAVYYCNADLYFPYFDGKTRHGGYWGQGTQVTVSS”, the “polyreactivity (PSR sort gate)” value is on record as “low polyreactivity”.

As to “QVQLVESGGGLVQAGGSLRLSCAASGRTFYWNAMGWYRQAPGKERELVAAIRWRGGNTYYADSVKGRFTISRDNAKNTVYLQMNSLKPEDTEVYYCNKYGYKGGVGYDYWGQGTQVTVSS”, the “polyreactivity (PSR sort gate)” value is recorded as “high polyreactivity”.

With “QVQLVESGGGLVQAGGSLRLSCAASGRTFYWYTMGWYRQAPGKERELVAAITYRAGSTYYADSVKGRFTISRDNAKNTVYLQMNSLKPEDTAVYYCNADPPPEYYPDKDNYWGQGTQVTVSS”, the “polyreactivity (PSR sort gate)” value is “low polyreactivity”.

Regarding “QVQLVESGGGLVQAGGSLRLSCAASGRTFYWYVMGWYRQAPGKERELVAAITQTGSSTYYADSVKGRFTISRDNAKNTVYLQMNSLKPEDTAAYYCADRLSRNHYEVDYWGQGTQVTVSS”, the “polyreactivity (PSR sort gate)” value is on record as “low polyreactivity”.

With “QVQLVESGGGLVQAGGSLRLSCAASGRTFYYAMGWYRQAPGKERELVATITSGGSTNYADSVKGRFTISRDNAKNTVYVQMNSLKPEDTAVYYCNRDIPPGNYYKALYYYWGQGTQVTVSS”, the “polyreactivity (PSR sort gate)” value is “low polyreactivity”.

On to “QVQLVESGGGLVQAGGSLRLSCAASGRTFYYARGWYRQAPGKERELVAAITSSSSTYSADSVKGRFTISRDNAKNTVYLQMNSLKPEDTAVYYCNAADDPYGSPSYGYDYWGQGTQVTVSS”, for which the “polyreactivity (PSR sort gate)” value is given as “low polyreactivity”.

Turning to “QVQLVESGGGLVQAGGSLRLSCAASGRTFYYNGMGWYRQAPGKERELVAAITSGGTTSYADSVKGRFTISRDNAKNTVYLLMNCLKPEDTAVYYCNAECAPWGSAYGHDQYDYWGQGTQVTVSS”, the “polyreactivity (PSR sort gate)” value is on record as “low polyreactivity”.

With “QVQLVESGGGLVQAGGSLRLSCAASGRTFYYNVMGWYRQAPGKERELVAAISTGVSTNYADSVKGRFTISRDNAKNTVYLQMNSLKPEDTAVYYCNARSYRWYRPVYRYDYWGQGTQVTVSS”, the “polyreactivity (PSR sort gate)” value is recorded as “high polyreactivity”.

Take “QVQLVESGGGLVQAGGSLRLSCAASGRTFYYYAMGWYIQAPGKEREFVASISYSGARTYYADSVKGRFTISRDNAKNTVYLQMNSLKPEDTAVYYCNRYASNYGYIDYWGQGTQVTVSS”: the “polyreactivity (PSR sort gate)” value is “high polyreactivity”.

For the sequence “QVQLVESGGGLVQAGGSLRLSCAASGRTFYYYAMGWYIQAPGKERELVATITKSSGSTSYADSVKGRFTISRDNAKNTVYLQMNSLKPEDTAVYYCAKVFRSGGVYRYDYWGQGTQVTVSS”, the “polyreactivity (PSR sort gate)” value was “high polyreactivity”.

As to “QVQLVESGGGLVQAGGSLRLSCAASGRTFYYYAMGWYRQAPGKERELVAAISRGGGSTYYADSVKGRFTISRDNAKNTVYLQMNSLKPEDTAVYSWNKVYSTSSYDYWGQGTQVTVSS”, the “polyreactivity (PSR sort gate)” value is on record as “high polyreactivity”.

For “QVQLVESGGGLVQAGGSLRLSCAASGRTFYYYAMGWYRQAPGKERELVAAISSNGGSTYADSVKGRYTISRDNAKNTVYLQMNSLKPEDTAVYYCNARFTYRWGMGYWGHGTQVTVSS”, the “polyreactivity (PSR sort gate)” value is listed as “high polyreactivity”.

On to “QVQLVESGGGLVQAGGSLRLSCAASGRTFYYYAMGWYRQAPGKERELVAAITSNGGSTYYADSVKGRFTISRDNAKNTVYLPMNSLKPEDTAVYYCAADTYWYLSPYDYWGQGTQVTVSS”, for which the “polyreactivity (PSR sort gate)” value is “low polyreactivity”.

Turning to “QVQLVESGGGLVQAGGSLRLSCAASGRTFYYYAMGWYRQAPGKERELVARISRGGSTNYADSVKGRFTISRDNAKNTVYLQMNSLKPEDTAVYYCAKTISYTGRFWGYDYWGQGTQVTVSS”, the “polyreactivity (PSR sort gate)” value was “high polyreactivity”.

“QVQLVESGGGLVQAGGSLRLSCAASGRTFYYYGMGWYRQAPGKERELVAAINRGDSTKYADSVKGRFTISRDNAKNTVYLQMNSLKPEDTAVYYCNARLRASFARFIYEYWGQGTQVTVSS”: the “polyreactivity (PSR sort gate)” value is recorded as “low polyreactivity”.

As to “QVQLVESGGGLVQAGGSLRLSCAASGRTIADNAMGWYRQAPGKEREVVATISYSDSTTYYADSVKGRFTISRDNAKNTVYLQMNSLKPEDTAVYYCAAERLTHWGAFAAYDYWGQGTQVTVSS”, the “polyreactivity (PSR sort gate)” value is given as “low polyreactivity”.

Consider “QVQLVESGGGLVQAGGSLRLSCAASGRTIANNAMGWYRQAPGKERQLVAVITNSGRTYYADSVKGRFTISRDNAKNTVYLQMNSLKPEDTAVYYCAVRYFDRGGSEHPVTFYWGQGTQVTVSS”, for which the “polyreactivity (PSR sort gate)” value is recorded as “high polyreactivity”.

Turning to “QVQLVESGGGLVQAGGSLRLSCAASGRTIAQYAMGWSRQAPGKERELVAAISSSGGSTYYADSVKGRFTISRDNAKNTVYLQMNSLKPEDTAVYYCAKYGTKAKQYDYWGQGTQVTVSS”, the “polyreactivity (PSR sort gate)” value is “high polyreactivity”.

Regarding “QVQLVESGGGLVQAGGSLRLSCAASGRTIDHNTMGWYRQAPGKERELVAAISWSGGTTYYADSVKGRFTISRDNEKNTVYLQMNSLKPEDTAVYYCAADRSRGSYGYQYDYWGQGTQVSVSS”, the “polyreactivity (PSR sort gate)” value is on record as “low polyreactivity”.

As for “QVQLVESGGGLVQAGGSLRLSCAASGRTIDHYAMGWYRQAPGKDRELVAAISTTGGSTYYADSVKGRFTISRDNAMNTVYLQMNSLKPEDTAVYFCAARGLRTGGYWGQGTQVTVSS”, the “polyreactivity (PSR sort gate)” value was “high polyreactivity”.

Take “QVQLVESGGGLVQAGGSLRLSCAASGRTIDHYAMGWYRQAPGKERELVAAISTTGGSTYYADSVKGRFTISRDNAKNTVYLQMNSLKPEYTAVYYCAARGLRTGGYWGQGTQVTVSS”: the “polyreactivity (PSR sort gate)” value was “high polyreactivity”.

Consider “QVQLVESGGGLVQAGGSLRLSCAASGRTIDPNAMGWYRQAPGKERELVAAITRTGVRTYYADSVKGRFTISRDNAKNTVYLQMNSLKPEDTAVYYCNRYGARSNDYWGQGTQVTVSS”, for which the “polyreactivity (PSR sort gate)” value is recorded as “low polyreactivity”.

With “QVQLVESGGGLVQAGGSLRLSCAASGRTIDRMLMGSYRQAPGKERELVAAITSGGRTNYADSVKGRFTISRDNAKNTVYLKMNSLKAEDTAFYYCARHGGRRPVSSKGNTYDYWGQGTQVTVLS”, the “polyreactivity (PSR sort gate)” value is listed as “low polyreactivity”.

As to “QVQLVESGGGLVQAGGSLRLSCAASGRTIDWYAMGWYRQAPGKVRELVAGITYSGGSTYYADSVKGRFTISRDIANKTVYFQMNSLKPEDTAVYYCAAAKSYRSGSWYEYWGQGTQVTVSS”, the “polyreactivity (PSR sort gate)” value is listed as “high polyreactivity”.

For “QVQLVESGGGLVQAGGSLRLSCAASGRTIEGNVMGWYRQAPGKERELVAAITRTAGSTYYADSVKGRFTISRDNAKNTVYLQMNSLKPEDTAVYYCAVEGIYRWYDYSWYYTSTYDYWGQGTQVTVSS”, the “polyreactivity (PSR sort gate)” value is “low polyreactivity”.

With “QVQLVESGGGLVQAGGSLRLSCAASGRTIFYNAMGWYRQAPGKERELVAAINWRGGSTYYADSVKGRFTISRDIAKNTVYLQMNSLKPEDTAVYYCAARNVYVWYDYWGQGTQVTVSS”, the “polyreactivity (PSR sort gate)” value is recorded as “low polyreactivity”.

As to “QVQLVESGGGLVQAGGSLRLSCAASGRTIGAYAMGWYRQAPGKEREFVAAITFGGGPTYYADSVKGRFTISRDNAKNTVYLQMNSLKPEDTAVYYCAKRIDLSFPYARYDYWGQGTQVTVSS”, the “polyreactivity (PSR sort gate)” value is given as “low polyreactivity”.

For “QVQLVESGGGLVQAGGSLRLSCAASGRTIGGYVMGWYRQAPGTERELVAVITISGGSTYYADSVKGRFTISRDNAKNTVYLQMNSLKPEDTAVYYCAARTYYGYDYWGQGTQVTVSS”, the “polyreactivity (PSR sort gate)” value is reported as “high polyreactivity”.

As for “QVQLVESGGGLVQAGGSLRLSCAASGRTIGSYAMGWYRQAPGKERELVAAITSSCGSTYYADSVKGRFTISRDNAKNTVYLQMNSLKPEDTAVYDCAALWGRRGWWGVSWSFSTGFDYWGQGTQVTVSS”, the “polyreactivity (PSR sort gate)” value is reported as “high polyreactivity”.

Regarding “QVQLVESGGGLVQAGGSLRLSCAASGRTIGVYALGWSRQAPGKERELVAALTTSGDSTYYADSVKGRFTISRDNAKNTDYLQMNSLKPEDTAVYYCAARSYRKPRHVSVTYYYWGQGTQVTVSS”, the “polyreactivity (PSR sort gate)” value is given as “low polyreactivity”.

As to “QVQLVESGGGLVQAGGSLRLSCAASGRTIGYNDLGWYRQAPGKERELVAAIDWSGGSTYYADSVKGRFTISRDNAKNTVYLQMNSLKPEDTAVYDCAALVWRDEYDYLGQGTQVTVSS”, the “polyreactivity (PSR sort gate)” value is listed as “low polyreactivity”.

For the sequence “QVQLVESGGGLVQAGGSLRLSCAASGRTIKYTAMGWYRQAPGKERDLVAAITYSGGSTYYADSVKGRFTISRDNAKNTVYLQMNSLKPEDTAVYYCGQGTQVTVSS”, the “polyreactivity (PSR sort gate)” value was “low polyreactivity”.

Turning to “QVQLVESGGGLVQAGGSLRLSCAASGRTIPFNAMGWYRQAPGKERELVAAISSSAGRTYYADSVKGRFTISRDNAKNTVYLQMNSLKPEDTAVYYCAARLYGRYRYDYWGHGTQVTVSS”, the “polyreactivity (PSR sort gate)” value is listed as “low polyreactivity”.

On to “QVQLVESGGGLVQAGGSLRLSCAASGRTIPNVMGWYRQAPGKERELVAAISSSVGSTSYADSVKGRFTISRDNAKNTVYLQMNSLKPEDTAVYYCAARYYYRDWVGIISTYYYWGQGTQVTVSS”, for which the “polyreactivity (PSR sort gate)” value was “high polyreactivity”.

On to “QVQLVESGGGLVQAGGSLRLSCAASGRTIPTYDMGWYRQAPGKERELVASIRSGGRTKYADSVKGRFTISRVNAKNTVYLQMNSLKPEDTAVYYCAADRRAYYYSFDYWGQGTQVTVSS”, for which the “polyreactivity (PSR sort gate)” value was “low polyreactivity”.
